The Human Domainome abundance scans (Beltran et al. 2025)

B1: Lysine-specific demethylase 2B, residues 656 to 722; numbered along this chain, Q8NHM5 (parent)
chain: LPHTAVCLVCGEAGKEDTVEEEEGKFNLMLMECSICNEIIHPGCLKIKESEGVVNDELPNCWECPKC

Variants of: B1
Experiment: abundance fitness (aPCA) (normalised: wild type 0, dead -1); higher = more abundant; growth selection in yeast, the domain comes from the species named
Settings: Homo sapiens

Abundance fitness: each site, then its substitutions
I40: E -0.599
I39: N 0.056, H 0.245, Y 0.076, Q 0.257, R 0.138, C -0.216, P -0.055, W -0.157, L -0.125, V 0.013, M 0.119, A -0.029, G -0.141, S -0.129, K -0.021, E -0.256, T -0.053
E32: T 0.02, C 0.088, K 0.156, V -0.287, Y -0.668, I -0.072, H 0.103, Q -0.17, A -0.222, F -0.205, D -0.324, G -0.063, S 0.044, R 0.201, L 0.005, M 0.142, W -0.247, P -0.53
N37: E 0.02, C 0.34, Y 0.137, W -0.267, R 0.111, V -1.3, Q 0.183, S 0.057, D -0.026, H 0.081, A 0.094, F -0.233, K 0.095, M -0.062, G 0.092, T -0.369
F26: R -0.018, N 0.053, Q -0.37, H -0.343, S -0.343, M 0.062, P -0.165, K -0.257, G -0.278, T -0.155, D -0.4, Y -0.234, V -0.164, I 0.028, E -0.176, A -0.204, L -0.297
E23: R -0.058, Y -0.36, W -0.554, A 0.004, F -0.058, S 0.185, D -0.016, Q -0.21, M -0.088, T -0.028, P -0.342, V 0.035, K 0.157, G 0.13, C -0.193, N -0.05, L -0.354
C33: Y -0.621, P -0.729, L -0.765, V -1.24, K -0.6, A -0.912, M -0.642, S -0.716, W -1.02, T -0.753, N -0.481, D -0.852, R -0.593, Q -0.581, G -0.629, E -0.619
M31: P -0.847, K -0.093, H -0.25, A -0.18, L -0.053, Y -0.317, T -0.405, W -0.229, C -0.219, V -0.276, Q -0.662, R -0.141, I -0.238, G -0.485, S -0.446, F -0.272
G24: A 0.011, L 0.045, H 0.346, F 0.006, K -0.051, N 0.123, C -0.415, T 0.019, I -0.049, Y 0.154, W -0.526, Q -0.123, E 0.013, R -0.121, P -0.481, V -0.021, S 0.15, M 0.375
I35: S -0.364, C -0.119, T 0.147, R -0.022, E -0.399, G -0.14, Y -0.548, L 0.016, W -0.643, K -0.057, V 0.037, Q -0.149, N -0.295, P -1.07, D -0.323, M 0.023
S34: P -0.456, G -0.106, I -0.058, E -0.469, L -0.36, C -0.053, D -0.153, Q 0.027, R -0.229, T 0.082, K -0.021, H -0.03, W -0.545, V -0.078, A -0.273
